Assay results taken from US20180284130A1.
Blank lines part the entries; values can stand above or below the substance they belong to.

What was measured:
[1] = biological target: recombinant human anti-TNP IgG2 (chimeric, TIB142 VH with human IgG2 constant region) (human) [IgG part: P01859]; assay: ELISA; anti-TNP IgG on TNP-BSA, biotinylated dimer; EC50 as IgG concentration (FIG. 3 D, L)
rituximab [2] = assay: flow cytometry; CD19 B cells in PBMC opsonised with 2.5 µg/ml rituximab, dimer 0.2 µg/ml (FIG. 14E)
obinutuzumab (GAZYVA) [3] = assay: ELISA; mAb at 1000 and 315 ng/ml captured, ratio of A450 obinutuzumab/rituximab (FIG. 8H)
obinutuzumab (GAZYVA) [4] = assay: ELISA; mAb captured by F(ab')2 anti-human F(ab')2, biotinylated dimer, streptavidin-HRP (FIG. 8C)
rituximab [5] = assay: flow cytometry; CD19 B cells in PBMC opsonised with 2.5 µg/ml rituximab, dimer 0.2 µg/ml (FIG. 14F)

EC50 [1]: 0.3 µg/mL | median fluorescence intensity (MFI) (rituximab [2]): 4000 MFI
Substance: Human rsFcγRIIa H131 dimer (from UniProt P12318 34-215) (receptor)

binding preference over rituximab (obinutuzumab (GAZYVA) [3]): 10 fold | binding preference over rituximab (obinutuzumab (GAZYVA) [4]): 20 fold
Substance: Human rsFcγRIIIa F158 dimer (receptor)

median fluorescence intensity (MFI) (rituximab [5]): 11000 MFI
Substance: Human rsFcγRIIIa V158 dimer (receptor)
